Test: soluble on expression in E. coli; label from the status in PepcDB or PDB records

Row | Sequence | soluble on expression in E. coli
1 | MINLTHIASSLARAALSDSTKPKMERAINVASHIAGKVALQVTSSLLEQKGLLNERQQKGLSMILKALSGKEPVNNVETHEGGGRFNLARAAFDVASVVWERDKSMHNVMSFLGVSDSKGKMLFSLGKKLADAMAKPEPGKDNSEATNARHAYFSSNLKLNKLMNDLTDQVFNKIR | not soluble
2 | GPGSMSNAVSGVIDARWMRFLRECKQRELVAEIEVLRRTFEATLDRKKGFSTTLLEELSVAEEQCRHAFRSHMDVVSSLLQLHAARTKDLEADLDANVAEMQQDFEYERAELELKHMIEMDDLRLILDNMAAEAEMLEKKLQEETSEGHETAAEKMDEAMREMEADLNKVEDGLRGELDSRYKKFMSAAQANMKEYTAKCKEDQETTERIAAQLRKIEKLQSSVSSWRTNIARNAKEWEDRNAAIQAERDATLSHLKKLKDKMQRWRELQSKALVELVKEANATEEALQATSKRAVRLLRLVELCKPMETEREQVLLHEANISSAAVEAETKRRVAAESSGNAQDDVLRGGDAAPAANEQWLSLDRFWVKHNKVVLDNAALTQERFLLEEENRVLQEVLKQYLDDVSISDQVMRQSNTLLLTQGANYNVVQAANASDNSVVRGYNVIEGNKFVNDQSRQAISH | not soluble
3 | MSLAWDEGKPRIITLTMNPALDITTSVDVVRPTEKMRCGAPRYDPGGGGINVARIVHVLGGCSTALFPAGGSTGSLLMALLGDAGVPFRVIPIAASTRESFTVNESRTAKQYRFVLPGPSLTVAEQEQCLDELRGAAASAAFVVASGSLPPGVAADYYQRVADICRRSSTPLILDTSGGGLQHISSGVFLLKASVRELRECVGSELLTEPEQLAAAHELIDRGRAEVVVVSLGSQGALLATRHASHRFSSIPMTAVSGVGAGDAMVAAITVGLSRGWSLIKSVRLGNAAGAAMLLTPGTAACNRDDVERFFELAAEPTEVGQDQYVWHPIVNPEASPEGHHHHHH | soluble
4 | MGSDKIHHHHHHMSDVLSQEEINQLIEALMKGELKEEDLLKEEEEKKVKPYDFKRPSKFSKEQLRTFQMIHENFGRALSTYLSGRLRTFVDVEISIDQLTYEEFIRSVMIPSFIVIFTGDVFEGSAIFEMRLDLFYTMLDIIMGGPGENPPNRPPTEIETSIMRKEVTNMLTLLAQAWSDFQYFIPSIENVETNPQFVQIVPPNEIVLLVTASVSWGEFTSFINVCWPFSLLEPLLEKLSDRFWMMGRKPEKVEERMEELRKASQKIPVTVQAVIGETELRLKEILDLEVGDVIRLGTHYKDEIRIDVEGRPKFRGIPGVFKGKYAVKVTGEFTNGGEYE | not soluble
5 | MSRSTFSILPYINRQKVKADGTANILCRITVDGKSAAISTGISCTPQEWNAKKGEVRNARDNGRLASFLDEIKDKYNALLVANGIITVEMLKAVLKDKDTTGRFLLSFGDTIVEWYRTAKARQTFLHKRTWQKNLRDFVHSLDKDDIAFEDIDENFGEEYKLFLKRDQGRIDSYVNHCLLWLNMLMYKAVDRSIIRFNPIAKIGYEKKAAPKMTHISKADFIKMLSTPMADERTELARRCFIFASLTSLSYIDVKKLYPRHISENSEGRKFIRKEREKTGVEFFVPLHPIAEKILSLYNTTDDSKPVFPLGEKKDIYLDVHTLGMVLGISNKLGFHASRHTFGVLMLNEDIPIGSIAKMMGHADITSTQVYAQVTEQKISNDMDKLIAKREMNRLSNEKTIGK | not soluble
6 | MVLLVNIDDNEKWDNTVKGFENFDVYYLSGYVKAFHAHGDGEPKLFFYEDSNIKAINVFMKRDIEKDQNFSGKIPPNTFYDAATPYGYGGFLIEGNVTDESLRTLEKEYSELCLNEGIISEFVRFHPVINNSGTVSSIYDILELGRTVTIELDSREKVWEGFAGNNRNKVRKAKKSGVEIFWGRSPKLFDTFIPMYNETMDNDGASGYYYFKKDFYNSILEDLKYNSLIFYAVFEDRIISMSIILFANKQMHYHLSATDREYRNLAPTNLLLYEAACWGIENGYKTFHLGGGLGSREDSLYQFKKGFNKNSSTYFCIGKKIFDKEKYDELIKIRKQDPYFDENKLFFPLYRG | not soluble
7 | SMEVFQNHFEPGVYVCAKCGYELFSSRSKYAHSSPWPAFTETIHADSVAKRPEHNRSEALKVSCGKCGNGLGHEFLNDGPKPGQSRFSIFSSSLKFVPKGKETSA | soluble
8 | MGSDKIHHHHHHMSLASVFNIAGSGMSAQSTRLNTVASNIANAETVSSSVDKTYRARHPVFSTMFQQAQGDSGSLFADQDSSGAGVQVLGIVEDQSSLMPRYEPNHPAADANGYVYYPNVNVVEEMADMISASRAFQTNAEMMNTAKQMMQKVLTLGQ | not soluble
9 | DHYACVSSGGQCLYSACPIFTKIQGTCYRGKAKCCK | soluble
10 | MGHHHHHHSHMFMREIELKGHIIDSFILAKVFDRTLELGGDYKVLEFDIGKKKIDTSYAKLLISGDTQQHLDQILEELQNVGANIPEIENANLKPALKDSVLPDGFYSTTNHPTHVKVNDEWIEVANPKMDAVIVVYPEEKRAETKVIRKVKKGDFVLIGHNGIRVMPPEKSREAGQLFEFMNSEVSSEKPKEAIIKRIAKEMHEIREEYKKTGTGGIAIVGGPAIIHTGGGPALAKMVELGYIQAILAGNALATHDIESALYGTSLGVNIKTAKPVTGGHKHHIYAINAINDAGNIKNAVESGVLKEGIMYQCIKNNIPYVLAGSIRDDGPIPDVITDSMVAQDKMRTTVMDKKMVIMLSTLLHSVATGNLMPSYIKTVCVDIQPSTVTKLMDRGTSQAIGVVTDVGVFLVLLLKELERLELQE | soluble
11 | MKFCSQCGGEVILRIPEGDTLPRYICPKCHTIHYQNPKVIVGCIPEWENKVLLCKRAIAPYRGKWTLPAGFMENNETLVQGAARETLEEANARVEIRELYAVYSLPHISQVYMLFRAKLLDLDFFPGIESLEVRLFGEQEIPWNDIAFRVIHDPLKRYMEERHHGQPAFHLGIINKPQAGSNSNE | soluble
12 | MGSDKIHHHHHHWQVTGSKTTQDGVEAARMCGIDSYPLRLEPQLVCDTEDLDALMNVDALVITLPARRTGAGEGFYLQAVQEIVDTALAYHIPRIVFTSSTSVYGNVNGTVKENSPRLPQTASGQVLKELEDWLHNLPGTSVDILRLAGLVGPSRHPGRFFAGKSAPDGQHVVNLVHLQDVVAAIELLLQAPKGGHIYNLCAPRHPARGLFYPQMARELGLPPPVFSDSPDGGQGKIVDGNRICNELGFEYQYPDPLVMPME | not soluble
13 | MGSDKIHHHHHHMDCSKASTDTEKMICASSRLQQLDAVLNKAYQGYVKKADKAQARQEQRTWLAERDRCKDDVCLGNEMVSRIQALSGSENISVITQASGQWDFILSVATCNLDSSYSTCEGPGTLDIFKKGSGDLFQRITMENLFIELNNKGEVTANLVEVYGENNSGLVIDDANFDHHADIMLRNGNNGAYGGPSYDVYLFDVEKQQFTQNAPLTELASSNLGLFDIDEKSKTITTFTKSGCCWHQWSAYQMANNKPVLIVETTEAYSEEKQAMVATTRELVSGKWKVKEEIVKIDEQ | not soluble
14 | MSGISIIENAVLKPTKREVAEQWLGYFEHIGSYRFVDPDGQVGIESLIGFDLDRRLVQMPVTYRSAEFDAEHTLTTMDHSVLGTRYVSNAMGDPVAVREYIRVILEADNGAQRSDGKVSVLDVRGSGNREEKLTLGEVRILEATRQRAVGYVRIDGTLRGFVLRVPHLLVPENSPRLGHNISPMRLNGSVVMSPKTVLIAAELSWHDI | not soluble
15 | MNTSILAPPESLLEAQKVRLAIREGYDRPTAGMANGLTQVNMISVPQDWAYDFLLYTQRNPQSCPVLDVIDAGQFQSRLIQDKQHDIRTDFPRYRIWEYGQCVDEVNDATSIWNNHPDLVTFLIGCSFSFESALLNAGIEVRHITDQRNVPMYLSNIPCASAGRISGNMVVSMRPIPAAQVSQAVQITAKMPRVHGAPVHIGDPKSLGIADLSKPDFGDFPRILDGEIPVFWACGVTPQAAVMRSKVPFAISHAPGYMLITDVPDQAWMLLEHHHHHH | not soluble
16 | MNPTVLVAEDDPVQRLLLRRALEPLGVEVRLARHGREALDLALEAPPHLVLTDLHMPHMDGLELTRRLKALDPLLPVLLFTADRDHETRLRGLEAGADDFLNRPFDLTELRLRVKGHLERRRLQEKLEDLERALLALVRAVEAKDPYTAGHAERVARYALLGARELGAGEEELRDLHMGALLHDVGKIGLPDRILRGEAPLSAADWRLIQAHPVKGDEILTPLKAHPRLRPYVRWHHEKLDGSGYPDGLTEIPLLVQVLSAADMYDALTSRRTYREAVKPEEALEALEREAREGRLALEAVRALRSGLRRGASEAKGHVLHL | soluble
17 | MATEAPTQSYSEQWYWDDRYKNESEPFDWYQKYSPLAPLINLYVPQRNQRVLVIGCGNSAFSEGMVDDGYEDVVSIDISSVVIDTMIKKYSDRPQLKYLKMDVRDMKAFEDASFDAVIDKGTLDSILCGSNSRQYSTQMLEEVWRVLKDKGVYILITYGAPIYRLRLFKESCSWTTKLHVIDKSLTDQPLDTPKWELTKPLPLDADGSSVESAIGKNPDVHYIYVCIKDESSKMEADAA | soluble
18 | MSSQELVTLNVGGKIFTTRFSTIKQFPASRLARMLDGRDQEFKMVGGQIFVDRDGDLFSFILDFLRTHQLLLPTEFSDYLRLQREALFYELRSLVDLLNPYLLQPRPALVEVHFLSRNTQAFFRVFGSCSKTIEMLTGRITVFTEQPSAPTWNGNFFPPQMTLLPLPPQRPSYHDLVFQCGSDSTTDNQTGVRYVSIKPDNRKLANGTNVLGLLIDTLLKEGFHLVSTRTVSSEDKTECYSFERIKSPEVLITNETPKPETIIIPEQSQIKK | soluble
19 | MDAAKDLRMTQLLQDPHSVREEREKVLEVAIGREVRAFRKQQGITVAELSKLTDLSIGMLSKIENGNTSPSLTTLQTLANALSVPLTAFFKGYEEKREAIHTKAGQGLEIERAGTRAGHQYSLLGHIGSNSSGVIVEPYLITLSTESDTFKTFQHDGIEMIYMLEGKVDYLHGSEIYPLEPGDTLFFDADAPHGPERLVELPTRYLSVICYPQQKKG | not soluble
20 | MGSDKIHHHHHHLRSNRVTQHPPLQLSLPVHLPDDETFTSYYPAAGNDELIGALKSAASGDGVQAIYLWGPVKSGRTHLIHAACARANELERRSFYIPLGIHASISTALLEGLEQFDLICIDDVDAVAGHPLWEEAIFDLYNRVAEQKRGSLIVSASASPMEAGFVLPDLVSRMHWGLTYQLQPMMDDEKLAALQRRAAMRGLQLPEDVGRFLLNRMARDLRTLFDVLDRLDKASMVHQRKLTIPFVKEMLRL | not soluble
21 | MLSLNLPVFDTKINVRNGKNVIFDVIRKRYVALTPEEWVRQHFVHFLIAHKGYPNALLANEVMVKLNGTTKRCDTVLYRRDLSARMIVEYKAPHIEITQAVFDQITRYNMVLKVDYLIVSNGMQHYCCRMDYAHQSYTFLQDIPDYNAL | not soluble
22 | MAEKLNFEELNSMQRYSQFAVFRAIPGALGSDRAEIVAQAQSFFDGLETAGKVEVRGIYDLAGCRAEADFMIWWIAEEFEEIQAAFARFRRETVLGQVSEVAWLGNSLHRPAEFNRSHLPSFIMGEIPGDWITVYPFVRSYDWYIMDPQKRRKILAEHGQAARDFPDVRANTVPAFALGDYEWMLAFEAPRLDRIVDLMHKMRYTEARLHVREETPFFTGRRVSEVSELVNVLP | not soluble
23 | MAHHHHHHMKLPYAKLEKHSRPVRCVHAEYGCTMLFCSVRCRQAGWSRFHFAGCPGAMMSDQRDAYDEFIHHDWEYRGVDYSDTVFLAFRFVCMAVTNIRLHRQSLELAYRPIAQLIKAPLSFFHFTYLFYREEADSTEKKGRGEKQIEKLRLIRWEAFRKFRATHMSTTENDTTDDFLATGMTLLGRILRFTQEECTLFTVARWSELLGAVLLNGQERSPPSNYDRLKELVRRLPCGESTMDAFEQEVQMAGNELQHLRQSSRGQGVYTVGCLFNHSCEPNLQVVYSESGDETLSVVALRDIEPGEELCISYIDESLSYPERQQELYEHYLFFCQCPKCEREAAAWEPIEPCEEVLSSAYTFSQLY | not soluble

Source: the DeepSol protein solubility set
